From article PMC5441565 (Nature, 2017) come the findings set out here.

The target of assay [1] is mCherry-LacI-TIRR (human) (UniProt Q9BRJ7). The experiment in a line: LacO/LacI tethering.
The next assay addresses GFP-LacI-53BP1 (human) (UniProt Q12888). The experiment in a line: LacO/LacI tethering.
The target of assay [2] is TIRR-His (recombinant TIRR) (human, UniProt Q9BRJ7 1-211). Description: ITC. Background: ITC needs no label: the signal is the heat of the interaction.
Chain of TIRR-His (recombinant TIRR) (Q9BRJ7 whole entry): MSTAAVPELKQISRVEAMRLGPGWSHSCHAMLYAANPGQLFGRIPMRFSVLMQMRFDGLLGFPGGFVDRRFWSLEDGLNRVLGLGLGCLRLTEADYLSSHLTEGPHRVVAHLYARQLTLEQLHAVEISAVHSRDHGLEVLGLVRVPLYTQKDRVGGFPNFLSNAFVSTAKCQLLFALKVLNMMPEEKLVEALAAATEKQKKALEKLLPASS

Chain of GFP-LacI-53BP1 (human) (Q12888 whole entry): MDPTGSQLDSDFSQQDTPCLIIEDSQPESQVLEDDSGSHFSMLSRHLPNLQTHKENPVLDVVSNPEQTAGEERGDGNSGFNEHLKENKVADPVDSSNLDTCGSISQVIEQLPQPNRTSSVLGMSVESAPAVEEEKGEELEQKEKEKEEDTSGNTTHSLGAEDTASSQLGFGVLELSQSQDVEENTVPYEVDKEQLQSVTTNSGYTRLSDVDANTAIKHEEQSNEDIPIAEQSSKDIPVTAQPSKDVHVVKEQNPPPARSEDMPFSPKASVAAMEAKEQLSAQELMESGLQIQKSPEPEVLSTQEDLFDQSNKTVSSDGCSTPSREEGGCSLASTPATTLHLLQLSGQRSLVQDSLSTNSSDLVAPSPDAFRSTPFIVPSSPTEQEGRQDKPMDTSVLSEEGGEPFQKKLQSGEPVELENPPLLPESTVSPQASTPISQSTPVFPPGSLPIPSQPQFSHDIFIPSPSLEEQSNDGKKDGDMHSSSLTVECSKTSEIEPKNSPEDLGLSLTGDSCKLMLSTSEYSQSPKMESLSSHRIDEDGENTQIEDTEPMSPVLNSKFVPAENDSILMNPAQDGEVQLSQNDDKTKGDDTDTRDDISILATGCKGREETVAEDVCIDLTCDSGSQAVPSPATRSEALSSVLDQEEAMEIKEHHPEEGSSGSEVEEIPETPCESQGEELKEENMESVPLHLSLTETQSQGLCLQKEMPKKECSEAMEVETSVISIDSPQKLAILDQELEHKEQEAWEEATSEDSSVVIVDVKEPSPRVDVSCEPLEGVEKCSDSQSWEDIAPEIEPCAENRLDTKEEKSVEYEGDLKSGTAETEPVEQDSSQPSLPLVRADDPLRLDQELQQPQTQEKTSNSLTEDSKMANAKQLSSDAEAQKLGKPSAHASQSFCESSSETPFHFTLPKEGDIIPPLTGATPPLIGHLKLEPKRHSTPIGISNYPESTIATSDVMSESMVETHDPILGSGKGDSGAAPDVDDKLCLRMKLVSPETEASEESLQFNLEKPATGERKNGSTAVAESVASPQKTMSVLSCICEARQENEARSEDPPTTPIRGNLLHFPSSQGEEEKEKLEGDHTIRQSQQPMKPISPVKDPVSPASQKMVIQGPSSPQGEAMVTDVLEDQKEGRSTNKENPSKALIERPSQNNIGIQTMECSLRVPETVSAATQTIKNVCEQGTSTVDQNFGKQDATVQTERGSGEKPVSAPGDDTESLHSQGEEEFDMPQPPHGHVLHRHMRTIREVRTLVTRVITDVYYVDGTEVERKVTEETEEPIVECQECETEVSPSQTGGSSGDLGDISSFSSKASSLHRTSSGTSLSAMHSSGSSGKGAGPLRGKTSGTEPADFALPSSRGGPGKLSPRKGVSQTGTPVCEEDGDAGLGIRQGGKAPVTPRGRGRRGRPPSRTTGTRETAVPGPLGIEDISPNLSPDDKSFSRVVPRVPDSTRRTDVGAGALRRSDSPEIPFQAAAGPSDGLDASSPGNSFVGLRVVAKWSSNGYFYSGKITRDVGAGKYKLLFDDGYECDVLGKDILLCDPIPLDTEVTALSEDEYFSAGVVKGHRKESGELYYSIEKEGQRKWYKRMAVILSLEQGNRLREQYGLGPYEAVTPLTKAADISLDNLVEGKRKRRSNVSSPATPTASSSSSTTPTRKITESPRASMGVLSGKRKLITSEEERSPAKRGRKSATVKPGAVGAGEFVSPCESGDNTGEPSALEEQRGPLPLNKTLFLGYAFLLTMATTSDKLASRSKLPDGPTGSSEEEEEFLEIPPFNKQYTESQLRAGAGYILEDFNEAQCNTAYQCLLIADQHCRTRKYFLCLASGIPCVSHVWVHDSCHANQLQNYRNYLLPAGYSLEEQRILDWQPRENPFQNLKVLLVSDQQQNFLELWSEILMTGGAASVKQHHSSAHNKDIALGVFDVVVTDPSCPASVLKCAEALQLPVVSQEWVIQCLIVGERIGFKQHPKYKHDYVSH
Chain of mCherry-LacI-TIRR (human) (Q9BRJ7 whole entry): as the sequence (Q9BRJ7 whole entry) above

The molecule “53BP1 (P53-binding protein 1), endogenous (from UniProt Q12888 1-1972) (natural protein)” gave a percent of cells with co-localisation on the LacO array (% of the cells) in assay [1] of 57.5.

Take “mCherry-TIRR (from UniProt Q9BRJ7 1-211) (natural protein)”: in the assay with GFP-LacI-53BP1 (human), the percent of cells with co-localisation on the LacO array (% of the cells) was 72.

B1: 53BP1 tandem Tudor domain (for ITC and NMR) (domain or fragment)
chain: NSFVGLRVVAKWSSNGYFYSGKITRDVGAGKYKLLFDDGYECDVLGKDILLCDPIPLDTEVTALSEDEYFSAGVVKGHRKESGELYYSIEKEGQRKWYKRMAVILSLEQGNRLREQYGLG
modifications: 15N-labelled for NMR; limits from PDB 2G3R (GHM tag remnant left out)
As a reminder, the Kd is the constant that tells how readily two partners part at equilibrium. In general, stoichiometry N refers to the number of molecules, sites or subunits per partner or assembly. For B1, in assay [2], the Kd was 790 nM and the “stoichiometry N” value was 1.
